The target in one test is T1, Lck SH3 (Homo sapiens, UniProt P06239).
T1 chain: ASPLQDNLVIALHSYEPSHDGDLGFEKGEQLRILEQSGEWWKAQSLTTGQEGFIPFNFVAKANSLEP
Description: fluorescence titration.

A further test addresses Abl SH3 (Homo sapiens, UniProt P00519). Description: fluorescence titration.

Chain of Abl SH3 (P00519 58-124): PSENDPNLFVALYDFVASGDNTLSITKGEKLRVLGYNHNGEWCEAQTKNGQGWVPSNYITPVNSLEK

In general, Kd refers to a measure of binding affinity in units of concentration. Turning to Ac-QLPPGPPGAPKPPPAS-NH2 [MED25], the Kd is 33.5 µM with Lck SH3 and 2.37 µM with Abl SH3.

The record behind these values is PMC2847151 (2009).
